In assay [1] the target is T1, PPARγ2 S273A mutant (Homo sapiens, UniProt P37231, S273A).
T1 construct: expressed in transfected cells; host or cells: HEK-293T
T1 sequence (P37231 1-505 S273A): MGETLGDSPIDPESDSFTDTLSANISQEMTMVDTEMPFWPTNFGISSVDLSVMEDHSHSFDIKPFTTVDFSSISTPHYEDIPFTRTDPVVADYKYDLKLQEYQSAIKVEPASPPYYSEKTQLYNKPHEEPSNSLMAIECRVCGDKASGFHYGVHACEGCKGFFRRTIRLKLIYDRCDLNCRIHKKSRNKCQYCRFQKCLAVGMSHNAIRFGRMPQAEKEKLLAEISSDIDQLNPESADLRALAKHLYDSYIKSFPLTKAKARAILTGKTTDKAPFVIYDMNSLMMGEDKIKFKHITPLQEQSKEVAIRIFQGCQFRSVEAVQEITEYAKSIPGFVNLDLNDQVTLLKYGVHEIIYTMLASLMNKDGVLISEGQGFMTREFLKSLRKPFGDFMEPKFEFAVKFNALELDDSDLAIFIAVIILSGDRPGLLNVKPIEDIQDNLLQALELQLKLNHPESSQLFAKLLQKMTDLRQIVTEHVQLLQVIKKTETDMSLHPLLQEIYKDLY
As to the kind of experiment: GST-pull down assay with PPARγ2 S273A mutant. It counts as binding. As to conditions: FIGS. 4A and 4B. On the procedure: 14-3-3 proteins are known to bind to phosphorylated residues of a target protein. Phosphorylated residues associated with the activity of PPARγ2 are known to be serine 112 and serine 273. Thus, PPARγ2 mutants (PPARγ2 S112A and S273A) with non-phosphorylated serine 112 and serine 273 residues were produced and binding thereof with 14-3-3 proteins was verified through GST-pull down assay.
(§1) HEK-293T cells were seeded in a 100 mm plate at a density of 2×10^6 cells per each well, and then transfected with Flag-PPARγ2 (WT) DNA (4 μg), Flag-PPARγ2 (S112A) DNA (4 μg), Flag-PPARγ2 (S273A) DNA (4 μg), and mGST-14-3-3β (4 μg) or mGST-14-3-3γ (4 μg) using an E-fection plus reagent (Lugen). As for Flag-PPARγ2 (S112A) DNA and Flag-PPARγ2 (S273A) DNA, DNA fragments amplified through polymerase chain reaction (PCR) were cloned into a Flag-tagged vector. A ratio of DNA to the E-fection plus reagent was 1:2, and this method was performed according to a manufacturer's manual. The corresponding cells were washed with ice-cold PBS and lysed using 500 μl/well of a lysis buffer (150 mM NaCl, 1 mM EDTA, 1% Nonidet P-40, 5% glycerol, 25 mM tris-HCl, pH 7.5, protease inhibitor added), and the lysed cells were centrifuged at 10,000×g and 4° C. for 10 minutes to extract proteins. […]

Assay [2] has as its target T2, PPARγ2 deletion mutant (139-505) (Homo sapiens, UniProt P37231).
T2 construct: Flag-PPARγ2 (139-505) DNA (4 μg); expressed in transfected cells; host or cells: HEK-293T
T2 sequence (P37231 139-505): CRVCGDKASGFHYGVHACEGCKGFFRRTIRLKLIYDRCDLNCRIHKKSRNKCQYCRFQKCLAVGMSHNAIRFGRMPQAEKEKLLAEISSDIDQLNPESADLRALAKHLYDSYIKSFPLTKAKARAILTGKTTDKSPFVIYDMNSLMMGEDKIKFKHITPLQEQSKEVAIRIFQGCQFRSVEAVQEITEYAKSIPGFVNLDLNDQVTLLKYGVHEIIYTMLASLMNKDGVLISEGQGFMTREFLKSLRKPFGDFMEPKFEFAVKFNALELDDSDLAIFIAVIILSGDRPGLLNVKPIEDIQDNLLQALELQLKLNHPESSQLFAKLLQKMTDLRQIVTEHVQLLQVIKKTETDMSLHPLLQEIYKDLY
As to the kind of experiment: GST-pull down assay with PPARγ2 deletion mutant (139-505). In kind it is binding. Particulars: FIG. 3B/3C. The procedure:
as §1, with “(1-505)” for “(WT)”, “(1-310)” for “(S112A)”, “(139-505)” for “(S273A)”, “For” for “As for”, “pCMV-3Tag-1 vector using restriction enzymes XhoI and ApaI.” for “Flag-tagged vector.”, “proteins. Thereafter, 1,000 μg of the proteins was reacted with 20 μl of glutathione Sepharose 4B beads (GE Healthcare, Buckinghamshire, UK) for 6 hours, and then washing of the beads with 1 ml of ice-cold PBS was repeated 5 times, and the beads were boiled at 100° C. for 10 minutes, followed by 10% SDS-PAGE gel separation and western blotting. A ratio of GST antibodies (Santa Cruz) to Flag antibodies (Santa Cruz) was 1:3000.” for “proteins.”

As for “14-3-3β: 14-3-3 isoform protein overexpressed by DNA transfection; increases the transcriptional activity of PPARγ2 by binding to PPARγ2”, the “binding with PPARγ2 S273A mutant” value in assay [1] is listed as “suppressed”. Besides, the “binding to PPARγ2 deletion mutant (139-505)” value in assay [2] was “bound”.

“14-3-3γ: 14-3-3 isoform protein overexpressed by DNA transfection; decreases the transcriptional activity of PPARγ2; proposed active ingredient”: the “binding with PPARγ2 S273A mutant” value in assay [1] is listed as “suppressed”. Besides, the “binding to PPARγ2 deletion mutant (139-505)” value in assay [2] was “bound”.
